Tests used:
TPM3 = biological target: T1, TPM3 (human, UniProt P06753-2 2-248); assay: co-IP with anti-FLAG, N-FLAG B3GNT2, mass spectrometry
T1 construct: also called NP_705935.1
Method: (§1) Cells were plated in 10-cm cell culture dishes and grown to 60-80% confluency. For each condition, two biological replicates were harvested for co-IP. Cells were washed with PBS and 4 mL of lysis buffer (20 mM HEPES, 1% Triton X-100, 150 mM NaCl, 1 mM EDTA, and 10% glycerol) containing protease inhibitor cocktail was added. Cells were scraped and lysate was incubated at 4° C. under rotary agitation for 1 h. Lysate was centrifuged at 14,000×g for 10 min at 4° C. Supernatant was transferred to a new tube and an aliquot was taken as the input. […] For Western blots, 10 μg/mL Chicken Anti-FLAG (Aves labs ET-DY100) and IgY control (R&D Systems AB-101-C) antibodies were biotinylated (Thermo Fisher Scientific 90407) and added to the respective conditions. Lysates with antibodies were incubated at 4° C. under rotary agitation overnight. For each mL of lysate, 50 μL of Pierce Protein A/G Magnetic Beads (Mass spectrometry; Thermo Fisher Scientific 88803) or Pierce Streptavidin Magnetic Beads (Western blot; Thermo Fisher Scientific 88817) was washed twice with lysis buffer. Lysates with antibodies were added to the beads and incubated at 4° C. under rotary agitation for 4 h. Beads were washed with lysis buffer 3 times and resuspended in lysis buffer for storage.
(§2) Magnetic beads were resuspended in 100 mM Tris pH 7.8, reduced, alkylated and digested with trypsin at 37° ° C. overnight. This solution was subjected to solid phase extraction to concentrate the peptides and remove unwanted reagents followed by injection onto a Shimadzu HPLC with fraction collector. Eight fractions were collected and after concentration were injected on a Waters NanoAcquity HPLC equipped with a self-packed Aeris 3 μm C18 analytical column 0.075 mm by 20 cm, (Phenomenex). Peptides were eluted using standard reverse-phase gradients. The effluent from the column was analyzed using a Thermo Orbitrap Elite mass spectrometer (nanospray configuration) operated in a data dependent manner for 54 minutes. The resulting fragmentation spectra were correlated against the known database using Proteome Discover 1.4 (Thermo Fisher Scientific).

TBL2 = biological target: T2, TBL2 (human, UniProt Q9Y4P3 1-447); assay: as above
T2 construct: also called NP_036585.1
T2 sequence (looked up): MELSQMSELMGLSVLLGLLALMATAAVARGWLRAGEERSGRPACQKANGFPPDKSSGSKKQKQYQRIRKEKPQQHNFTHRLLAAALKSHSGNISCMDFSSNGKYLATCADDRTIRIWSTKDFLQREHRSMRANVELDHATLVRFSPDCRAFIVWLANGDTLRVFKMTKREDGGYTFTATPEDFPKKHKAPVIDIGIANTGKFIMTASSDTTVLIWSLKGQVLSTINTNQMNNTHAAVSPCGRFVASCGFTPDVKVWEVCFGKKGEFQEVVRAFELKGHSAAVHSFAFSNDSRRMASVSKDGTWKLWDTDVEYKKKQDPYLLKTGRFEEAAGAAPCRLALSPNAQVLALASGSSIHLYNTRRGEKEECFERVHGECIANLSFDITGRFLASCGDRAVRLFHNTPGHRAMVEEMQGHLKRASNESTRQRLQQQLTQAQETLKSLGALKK
Method: as §1, §2

CHCHD3 = biological target: T3, CHCHD3 (human, UniProt Q9NX63 2-227, limits assumed); assay: co-IP with anti-FLAG, C-FLAG B3GNT2, mass spectrometry
T3 construct: also called NP_001304106.1 (+1)
T3 sequence (looked up): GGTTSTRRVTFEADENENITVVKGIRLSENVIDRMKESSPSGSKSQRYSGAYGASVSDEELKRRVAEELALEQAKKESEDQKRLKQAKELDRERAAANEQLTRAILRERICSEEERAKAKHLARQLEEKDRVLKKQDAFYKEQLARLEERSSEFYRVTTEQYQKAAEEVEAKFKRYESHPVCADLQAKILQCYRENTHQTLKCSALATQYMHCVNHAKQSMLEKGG

HNRNPM = biological target: T4, HNRNPM (human, UniProt P52272 2-730); assay: as above
T4 construct: also called NP_005959.2 (+1)
T4 sequence (looked up): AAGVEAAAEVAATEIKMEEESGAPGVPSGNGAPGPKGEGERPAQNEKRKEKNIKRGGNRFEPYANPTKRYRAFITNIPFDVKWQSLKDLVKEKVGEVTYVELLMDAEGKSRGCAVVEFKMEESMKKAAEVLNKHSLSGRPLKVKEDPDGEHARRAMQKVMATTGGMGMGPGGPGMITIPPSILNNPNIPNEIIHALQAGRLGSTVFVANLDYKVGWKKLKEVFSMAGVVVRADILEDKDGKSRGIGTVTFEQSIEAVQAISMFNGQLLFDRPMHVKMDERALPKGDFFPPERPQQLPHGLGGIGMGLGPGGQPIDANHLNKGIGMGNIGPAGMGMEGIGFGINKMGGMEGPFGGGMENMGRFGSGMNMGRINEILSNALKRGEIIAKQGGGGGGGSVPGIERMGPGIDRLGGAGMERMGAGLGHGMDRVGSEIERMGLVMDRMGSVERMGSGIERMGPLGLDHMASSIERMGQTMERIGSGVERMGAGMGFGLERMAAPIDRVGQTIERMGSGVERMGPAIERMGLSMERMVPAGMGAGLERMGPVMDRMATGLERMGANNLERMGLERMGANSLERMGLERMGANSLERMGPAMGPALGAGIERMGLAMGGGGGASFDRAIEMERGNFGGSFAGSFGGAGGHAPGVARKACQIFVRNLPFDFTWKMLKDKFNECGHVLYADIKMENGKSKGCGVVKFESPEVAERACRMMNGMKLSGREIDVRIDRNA

RPL7A = RPL7A (human, UniProt P62424 1-266); assay: co-IP with anti-FLAG, N-FLAG B3GNT2, mass spectrometry
Method: as §1, §2

PSMA3 = biological target: T5, PSMA3 (human, UniProt P25788 2-255); assay: co-IP with anti-FLAG, C-FLAG B3GNT2, mass spectrometry
T5 construct: also called NP_002779.1 (+1)
T5 sequence (looked up): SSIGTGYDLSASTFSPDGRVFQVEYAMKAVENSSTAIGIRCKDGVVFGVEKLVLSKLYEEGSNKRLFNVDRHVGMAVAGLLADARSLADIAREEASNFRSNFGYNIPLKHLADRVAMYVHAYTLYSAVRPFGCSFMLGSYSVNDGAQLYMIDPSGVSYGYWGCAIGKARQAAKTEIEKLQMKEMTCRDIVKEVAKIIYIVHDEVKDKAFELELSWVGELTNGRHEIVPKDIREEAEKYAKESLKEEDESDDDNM

T1 sequence (P06753 other isoform, or with tags, fused parts or gaps limits assumed): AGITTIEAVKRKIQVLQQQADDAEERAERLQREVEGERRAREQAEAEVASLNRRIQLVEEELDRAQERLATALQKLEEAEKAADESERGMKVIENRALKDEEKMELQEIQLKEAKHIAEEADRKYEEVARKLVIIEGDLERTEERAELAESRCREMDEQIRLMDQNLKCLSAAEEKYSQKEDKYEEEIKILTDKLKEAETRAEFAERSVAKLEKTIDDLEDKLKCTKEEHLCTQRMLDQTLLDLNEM

B1: N-terminal FLAG tagged B3GNT2 (enzyme, human, UniProt Q9NY97 1-397, looked up)
chain: MSVGRRRIKLLGILMMANVFIYFIMEVSKSSSQEKNGKGEVIIPKEKFWKISTPPEAYWNREQEKLNRQYNPILSMLTNQTGEAGRLSNISHLNYCEPDLRVTSVVTGFNNLPDRFKDFLLYLRCRNYSLLIDQPDKCAKKPFLLLAIKSLTPHFARRQAIRESWGQESNAGNQTVVRVFLLGQTPPEDNHPDLSDMLKFESEKHQDILMWNYRDTFFNLSLKEVLFLRWVSTSCPDTEFVFKGDDDVFVNTHHILNYLNSLSKTKAKDLFIGDVIHNAGPHRDKKLKYYIPEVVYSGLYPPYAGGGGFLYSGHLALRLYHITDQVHLYPIDDVYTGMCLQKLGLVPEKHKGFRTFDIEEKNKNNICSYVDLMLVHSRKPQEMIDIWSQLQSAHLKC
notes: FLAG-tagged ORF overexpressed in cells; pulled down from lysate with mouse anti-FLAG; also called N-FLAG B3GNT2; N-term FLAG; not shown: N-terminal FLAG tag
co-IP mass spectrometry count (TPM3): 6
co-IP mass spectrometry count (TBL2): 0

B2: C-terminal FLAG tagged B3GNT2 (enzyme, human, UniProt Q9NY97 1-397, looked up)
chain: MSVGRRRIKLLGILMMANVFIYFIMEVSKSSSQEKNGKGEVIIPKEKFWKISTPPEAYWNREQEKLNRQYNPILSMLTNQTGEAGRLSNISHLNYCEPDLRVTSVVTGFNNLPDRFKDFLLYLRCRNYSLLIDQPDKCAKKPFLLLAIKSLTPHFARRQAIRESWGQESNAGNQTVVRVFLLGQTPPEDNHPDLSDMLKFESEKHQDILMWNYRDTFFNLSLKEVLFLRWVSTSCPDTEFVFKGDDDVFVNTHHILNYLNSLSKTKAKDLFIGDVIHNAGPHRDKKLKYYIPEVVYSGLYPPYAGGGGFLYSGHLALRLYHITDQVHLYPIDDVYTGMCLQKLGLVPEKHKGFRTFDIEEKNKNNICSYVDLMLVHSRKPQEMIDIWSQLQSAHLKC
notes: FLAG-tagged ORF overexpressed in cells; pulled down from lysate with mouse anti-FLAG; also called C-FLAG B3GNT2; C-term flag; not shown: C-terminal FLAG tag
co-IP mass spectrometry count (CHCHD3): 15
co-IP mass spectrometry count (HNRNPM): 8

B3: N-terminal FLAG tagged B3GNT2 (enzyme, human, UniProt Q9NY97 1-397, looked up)
chain: MSVGRRRIKLLGILMMANVFIYFIMEVSKSSSQEKNGKGEVIIPKEKFWKISTPPEAYWNREQEKLNRQYNPILSMLTNQTGEAGRLSNISHLNYCEPDLRVTSVVTGFNNLPDRFKDFLLYLRCRNYSLLIDQPDKCAKKPFLLLAIKSLTPHFARRQAIRESWGQESNAGNQTVVRVFLLGQTPPEDNHPDLSDMLKFESEKHQDILMWNYRDTFFNLSLKEVLFLRWVSTSCPDTEFVFKGDDDVFVNTHHILNYLNSLSKTKAKDLFIGDVIHNAGPHRDKKLKYYIPEVVYSGLYPPYAGGGGFLYSGHLALRLYHITDQVHLYPIDDVYTGMCLQKLGLVPEKHKGFRTFDIEEKNKNNICSYVDLMLVHSRKPQEMIDIWSQLQSAHLKC
notes: FLAG-tagged ORF overexpressed in A375 cells; pulled down from the lysate with mouse anti-FLAG; also called N-FLAG B3GNT2; N-term FLAG; not shown: N-terminal FLAG tag
co-IP/MS count, N-term FLAG (RPL7A): 8

B4: C-terminal FLAG tagged B3GNT2 (enzyme, human, UniProt Q9NY97 1-397, looked up)
chain: MSVGRRRIKLLGILMMANVFIYFIMEVSKSSSQEKNGKGEVIIPKEKFWKISTPPEAYWNREQEKLNRQYNPILSMLTNQTGEAGRLSNISHLNYCEPDLRVTSVVTGFNNLPDRFKDFLLYLRCRNYSLLIDQPDKCAKKPFLLLAIKSLTPHFARRQAIRESWGQESNAGNQTVVRVFLLGQTPPEDNHPDLSDMLKFESEKHQDILMWNYRDTFFNLSLKEVLFLRWVSTSCPDTEFVFKGDDDVFVNTHHILNYLNSLSKTKAKDLFIGDVIHNAGPHRDKKLKYYIPEVVYSGLYPPYAGGGGFLYSGHLALRLYHITDQVHLYPIDDVYTGMCLQKLGLVPEKHKGFRTFDIEEKNKNNICSYVDLMLVHSRKPQEMIDIWSQLQSAHLKC
notes: FLAG-tagged ORF overexpressed in A375 cells; pulled down from the lysate with mouse anti-FLAG; also called C-FLAG B3GNT2; C-term flag; not shown: C-terminal FLAG tag
co-IP/MS count, C-term flag (PSMA3): 0
